Results on two molecules are retold here after article PMC7875338 (ACS synthetic biology, 2021).

The target in the assay is beta-galactosidase (β-gal), negative control expressed in HEK293T cells (Escherichia coli K12 lacZ, assumed, UniProt P00722 = β-galactosidase). Kind of assay: immunostaining of cells or tissue.
beta-galactosidase (β-gal), negative control expressed in HEK293T cells, sequence (P00722 whole entry): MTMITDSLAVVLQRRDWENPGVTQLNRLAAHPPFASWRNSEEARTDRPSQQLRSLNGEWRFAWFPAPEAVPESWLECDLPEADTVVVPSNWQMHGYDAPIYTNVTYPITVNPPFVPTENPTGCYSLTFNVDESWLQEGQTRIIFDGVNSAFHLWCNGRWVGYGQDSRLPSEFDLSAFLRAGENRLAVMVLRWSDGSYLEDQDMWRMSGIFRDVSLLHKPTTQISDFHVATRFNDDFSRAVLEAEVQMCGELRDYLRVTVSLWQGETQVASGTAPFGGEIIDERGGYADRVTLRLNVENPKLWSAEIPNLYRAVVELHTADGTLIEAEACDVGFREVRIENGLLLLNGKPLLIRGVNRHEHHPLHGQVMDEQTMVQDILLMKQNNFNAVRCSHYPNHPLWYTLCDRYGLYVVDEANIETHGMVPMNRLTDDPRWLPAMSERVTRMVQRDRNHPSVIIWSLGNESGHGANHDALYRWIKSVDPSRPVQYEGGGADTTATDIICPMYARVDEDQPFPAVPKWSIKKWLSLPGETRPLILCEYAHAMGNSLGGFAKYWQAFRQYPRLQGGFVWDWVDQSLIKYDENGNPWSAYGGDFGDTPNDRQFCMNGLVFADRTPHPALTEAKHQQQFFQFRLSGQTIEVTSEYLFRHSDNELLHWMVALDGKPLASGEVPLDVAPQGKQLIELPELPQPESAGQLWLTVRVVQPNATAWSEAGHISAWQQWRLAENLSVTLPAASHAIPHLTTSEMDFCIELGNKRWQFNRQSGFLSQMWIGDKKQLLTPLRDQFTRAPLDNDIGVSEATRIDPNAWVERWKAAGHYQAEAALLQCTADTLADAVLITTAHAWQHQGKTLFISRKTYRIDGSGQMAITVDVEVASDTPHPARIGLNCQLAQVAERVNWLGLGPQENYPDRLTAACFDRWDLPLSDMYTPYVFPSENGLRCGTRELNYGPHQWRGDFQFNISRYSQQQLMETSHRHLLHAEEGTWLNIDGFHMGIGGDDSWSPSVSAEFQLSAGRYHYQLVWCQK

B1: sdAb WuN1-APEX2 fusion protein (VHH)
VHH: QVKLQQSGGGLVQAGGSLRLSCAPSGRTFSVNAMGWYRQAPGKQREPVALISTGGSTNYADSVKGRFTITRDNVKNTVYLQMNTLKPEDTAVYYCYTERWKPRGIERDWGQGTQVTVSS
As to B1, the binding result was “no binding (tested: 100 nM)”.

B2: sdAb WuN3-APEX2 fusion protein (VHH)
VHH: KVKLQQSGGGLVQTGGSLRLSCAPSGRTFSVNAMGWYRQAPGKQREPVALISTGGSTNYADSVKGRFTISRDNVKNTVYLQMNTLKPEDTAVYYCYTERWKPRGIERDWGQGTQVTVSS
B2: the binding result was “no binding (tested: 100 nM)”.
